Source: publication PMC8452682, “Unwinding of a DNA replication fork by a hexameric viral helicase” (Nature Communications, 2021)

Biological target: the molecule itself
Assay: cryo-EM structure; E1RF complex: 60 uM E1 assembled with 10 uM fork DNA, no nucleotide, purified by gel filtration (10 mM Tris-Cl pH 8.0, 225 mM NaCl, 2 mM DTT, 0.1 mM PMSF, 1 mM EDTA); hexamer on DNA; Titan Krios 300 kV, K3

B1: Bovine papillomavirus (BPV) E1 helicase, full-length, wild type (enzyme)
chain: MANDKGSNWDSGLGCSYLLTEAECESDKENEEPGAGVELSVESDRYDSQDEDFVDNASVFQGNHLEVFQALEKKAGEEQILNLKRKVLGSSQNSSGSEASETPVKRRKSGAKRRLFAENEANRVLTPLQVQGEGEGRQELNEEQAISHLHLQLVKSKNATVFKLGLFKSLFLCSFHDITRLFKNDKTTNQQWVLAVFGLAEVFFEASFELLKKQCSFLQMQKRSHEGGTCAVYLICFNTAKSRETVRNLMANTLNVREECLMLQPAKIRGLSAALFWFKSSLSPATLKHGALPEWIRAQTTLNESLQTEKFDFGTMVQWAYDHKYAEESKIAYEYALAAGSDSNARAFLATNSQAKHVKDCATMVRHYLRAETQALSMPAYIKARCKLATGEGSWKSILTFFNYQNIELITFINALKLWLKGIPKKNCLAFIGPPNTGKSMLCNSLIHFLGGSVLSFANHKSHFWLASLADTRAALVDDATHACWRYFDTYLRNALDGYPVSIDRKHKAAVQIKAPPLLVTSNIDVQAEDRYLYLHSRVQTFRFEQPCTDESGEQPFNITDADWKSFFVRLWGRLDLIDEEEDSEEDGDSMRTFTCSARNTNAVD
notes: Replication protein E1 of bovine papillomavirus (BPV), full length; C-terminal acidic tail is residues 579-605; Hexamer assembled on a synthetic DNA replication fork (30 bp dsDNA, 3' T20, 13-base 5' tail) without nucleotide; also called E1 protein; subunits A-F of the E1RF complex; source: expressed as a GST fusion protein, purified (glutathione sepharose, thrombin cleavage, cation and anion …)
  stoichiometry N: 6
